In PMC4503349:

Target: Recombinant human calcineurin, comprising CnAα and CnB subunits (human) (UniProt Q08209)

- CaN phosphatase activity (malachite green, RIIP substrate) in a Ca2+/CM cross-titration; CaN:CM ratio that gives 50% activation at 500 μM Ca2+ (molar ratio (CaN:CM)): 1
Substance: calmodulin (from UniProt P0DP23 1-149) (natural protein)
